B1: WSB1 (parent)
chain: FSHDGLHVASLADDKMVRFWRIDE

Variants of: B1
Experiment: protein stability index of a GFP-peptide fusion (GPS, HEK-293T) (PSI 1-6); higher = more stable
Settings: c terminus: a fixed tail appended
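Also: lentivirally expressed fusions sorted by FACS into six bins by GFP to DsRed ratio, PSI derived from sequencing read proportions per bin multiplied by bin number.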

Variant | protein stability index
D23I | 3.06
D23C | 1.21
D23E | 1.58
D23K | 2.02
D23Q | 1.9
D23V | 1.81
D23L | 2.35
K15Y | 1.34
K15E | 2.68
K15H | 1.65
K15S | 1.76
K15R | 2.02
K15C | 1.53
K15N | 1.65
W20F | 2.09
W20L | 1.88
W20I | 2.85
W20V | 2.77
W20M | 2.67
W20T | 2.85
W20K | 2.69
W20P | 2.6
E24F | 2.68
E24D | 1.56

Variant | protein stability index
E24M | 2.05
E24C | 4.37
E24R | 1.78
E24S | 1.61
E24G | 1.23
G5V | 2.61
G5R | 2.07
G5M | 3.4
G5L | 1.74
G5C | 1.34
G5Q | 2.15
G5I | 1.89
M16V | 2.88
M16L | 1.56
M16H | 2.45
M16A | 1.57
M16C | 2.98
M16I | 1.4
L11E | 1.65
L11K | 2.24
L11R | 1.66
L11G | 1.71
L11H | 2.98
L11S | 1.05

Variant | protein stability index
L11Y | 1.3
S10E | 2.02
S10V | 1.11
S10Q | 1.82
S10T | 1.64
V8S | 2.41
V8W | 2.92
V8T | 1.86
V8H | 1.83
V8K | 1.1
V8Q | 3.68
D13N | 2.09
D13G | 1.04
D13I | 1.21
D13M | 1.22
D13W | 2.68
D13V | 2.03
D13H | 3.41
D13E | 1.31
A12Y | 1.66
A12C | 1.95
A12S | 1.35
A12T | 1.79
A12Q | 2.55

Variant | protein stability index
A12H | 2.99
A12G | 3.04
A12K | 1.71
A12N | 2.43
A12P | 1.57
A12L | 2.04
D14I | 3.14
D14L | 1.58
D14T | 1.83
D14E | 1.58
D14W | 2.53
D14Y | 1.52
D14H | 2.2
R21D | 2.19
R21Q | 1.44
R21P | 2.35
R21T | 1.17
R21S | 2.12
R21G | 1.47
R21K | 2
R21W | 2.12
F1T | 3.73
F1P | 3.52
F1C | 2.99

Variant | protein stability index
F1M | 3.81
F1L | 3.14
F1D | 4.46
F1N | 3.25
F1A | 2.85
F1Q | 3.9
F1H | 3.01
A9N | 2.09
A9V | 2.55
A9P | 1.76
A9S | 2.17
A9I | 2.66
A9F | 5.19
A9Q | 1.89
A9E | 2.01
A9W | 2.44
H3Y | 1.19
H3A | 2.89
H3C | 3.26
H3Q | 2.03
H3S | 3.07
H3T | 1.89
H3K | 2.08
H3E | 1.71

Variant | protein stability index
H3M | 1.79
S2G | 1.15
S2L | 1.58
S2R | 2.61
S2I | 2.46
S2Y | 1.83
S2P | 1.69
S2D | 3.79
L6R | 1.92
L6T | 1.67
L6K | 1.65
L6I | 2.15
L6D | 2.07
F19I | 1.49
F19R | 3.11
F19L | 3.32
F19V | 2.15
F19H | 2.66
R18T | 1.08
R18P | 1.83
R18D | 2.03
R18I | 2.23
H7V | 2.42
H7K | 1.17

Variant | protein stability index
H7E | 1.84
H7C | 1.86
H7M | 1.03
H7P | 2.09
H7I | 2.17
H7N | 1.68
I22N | 2.09
I22D | 2.27
I22M | 2.16
I22Y | 1.69
I22W | 1.77
I22Q | 2.45
I22K | 2.66
V17Y | 1.91
V17M | 1.79
V17F | 1.58
V17A | 1.15
V17I | 2.42
D4H | 1.43
D4E | 1.94
D4Y | 1.65
D4C | 1.73
D4K | 1.8
